Assay results taken from patent publication US20250277059A1, “ANTIBODY USED TO TREAT CORONAVIRUS INFECTION” (priority 2022, published 2025).

T1: TMPRSS-11D (human, UniProt O60235)
T1 sequence (single chain, looked up): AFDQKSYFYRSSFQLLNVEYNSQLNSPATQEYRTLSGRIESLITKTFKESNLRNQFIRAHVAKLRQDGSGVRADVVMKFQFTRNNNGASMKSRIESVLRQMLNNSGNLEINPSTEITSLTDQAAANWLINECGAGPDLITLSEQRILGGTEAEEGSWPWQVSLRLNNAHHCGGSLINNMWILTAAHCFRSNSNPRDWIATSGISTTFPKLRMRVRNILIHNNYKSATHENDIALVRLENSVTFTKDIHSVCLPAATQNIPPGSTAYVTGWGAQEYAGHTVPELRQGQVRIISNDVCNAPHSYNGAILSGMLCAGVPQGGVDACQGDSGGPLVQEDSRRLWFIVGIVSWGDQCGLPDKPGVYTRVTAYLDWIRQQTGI

T2: TMPRSS-13 (human, UniProt Q9BYE2)
T2 sequence (single chain, looked up): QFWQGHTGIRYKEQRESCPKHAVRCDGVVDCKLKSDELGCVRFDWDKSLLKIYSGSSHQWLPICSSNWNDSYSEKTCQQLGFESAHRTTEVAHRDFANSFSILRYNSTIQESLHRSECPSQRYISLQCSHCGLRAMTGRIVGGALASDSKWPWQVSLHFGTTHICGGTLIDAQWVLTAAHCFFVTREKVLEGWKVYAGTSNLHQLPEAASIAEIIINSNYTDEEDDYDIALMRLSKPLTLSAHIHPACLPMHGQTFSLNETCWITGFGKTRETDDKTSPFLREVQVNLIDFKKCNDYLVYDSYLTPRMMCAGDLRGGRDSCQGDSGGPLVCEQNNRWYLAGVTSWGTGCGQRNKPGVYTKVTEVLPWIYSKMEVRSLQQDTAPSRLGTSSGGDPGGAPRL

T3: TMPRSS-11E (human, UniProt Q9UL52)
T3 sequence (single chain, looked up): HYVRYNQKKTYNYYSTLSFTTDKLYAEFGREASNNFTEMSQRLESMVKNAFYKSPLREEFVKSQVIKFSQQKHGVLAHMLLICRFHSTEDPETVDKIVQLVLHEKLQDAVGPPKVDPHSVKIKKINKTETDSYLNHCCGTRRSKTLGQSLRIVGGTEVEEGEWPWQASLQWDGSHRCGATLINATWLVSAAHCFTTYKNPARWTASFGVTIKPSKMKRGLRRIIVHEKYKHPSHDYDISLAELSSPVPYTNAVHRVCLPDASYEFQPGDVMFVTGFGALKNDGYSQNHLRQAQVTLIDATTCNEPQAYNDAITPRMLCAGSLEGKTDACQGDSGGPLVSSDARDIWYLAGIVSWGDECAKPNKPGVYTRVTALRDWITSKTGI


How the values were obtained:
[1] = system: pseudo-typed virus having S protein of SARS-COV-2 (WT) derived from Wuhan; assay type: cell-based
[2] = target: T4, Human TMPRSS2 expressed on cells (human, UniProt O15393 1-492); test: flow cytometry, Daudi transfectant
T4 construct: also called TMPRSS2 expressing cells; Daudi-TMPRSS2 transfectant
T4 sequence (O15393 whole entry): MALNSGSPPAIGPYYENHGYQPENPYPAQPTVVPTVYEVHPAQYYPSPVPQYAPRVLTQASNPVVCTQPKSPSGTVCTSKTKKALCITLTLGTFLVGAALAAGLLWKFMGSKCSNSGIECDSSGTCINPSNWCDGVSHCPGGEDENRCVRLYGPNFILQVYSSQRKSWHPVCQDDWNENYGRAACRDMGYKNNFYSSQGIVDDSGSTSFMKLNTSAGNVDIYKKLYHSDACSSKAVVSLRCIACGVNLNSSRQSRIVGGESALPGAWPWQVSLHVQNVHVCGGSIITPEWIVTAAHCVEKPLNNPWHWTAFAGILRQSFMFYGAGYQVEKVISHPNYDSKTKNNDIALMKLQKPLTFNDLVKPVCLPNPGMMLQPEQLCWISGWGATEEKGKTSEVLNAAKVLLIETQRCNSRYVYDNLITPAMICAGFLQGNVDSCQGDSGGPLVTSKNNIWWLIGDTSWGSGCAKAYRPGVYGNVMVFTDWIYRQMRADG

[3] = target: Mouse TMPRSS2 expressed on cells (mouse, UniProt Q9JIQ8 1-490); test: flow cytometry, Daudi transfectant
Chain of Mouse TMPRSS2 expressed on cells (Q9JIQ8 whole entry): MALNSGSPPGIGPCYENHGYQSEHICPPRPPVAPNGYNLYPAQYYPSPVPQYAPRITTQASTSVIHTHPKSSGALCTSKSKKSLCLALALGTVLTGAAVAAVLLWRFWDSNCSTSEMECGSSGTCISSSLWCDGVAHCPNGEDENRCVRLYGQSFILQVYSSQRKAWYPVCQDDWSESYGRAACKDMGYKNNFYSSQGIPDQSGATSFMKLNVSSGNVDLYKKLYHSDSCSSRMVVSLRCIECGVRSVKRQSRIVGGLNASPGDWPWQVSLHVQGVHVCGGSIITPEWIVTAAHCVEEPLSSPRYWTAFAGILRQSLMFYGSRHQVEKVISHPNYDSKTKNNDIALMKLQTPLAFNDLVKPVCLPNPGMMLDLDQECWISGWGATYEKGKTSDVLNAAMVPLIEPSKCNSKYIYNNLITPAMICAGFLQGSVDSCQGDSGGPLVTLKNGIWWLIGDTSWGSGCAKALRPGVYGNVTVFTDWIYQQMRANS

[4] = target: Cynomolgus monkey TMPRSS2 expressed on cells (cynomolgus monkey); test: flow cytometry, Daudi transfectant
[5] = target: T5, Human TMPRSS2 recombinant protein, extracellular region (N-terminal His tag, C-terminal Strep-tag II) (human, UniProt O15393 106-492); test: SPR (BIAcore), captured mAb, soluble human TMPRSS2 extracellular region
T5 construct: also called Human TMPRSS2 recombinant proteins; extracellular region of human TMPRSS2
T5 sequence (O15393 other isoform, or with tags, fused parts or gaps limits assumed): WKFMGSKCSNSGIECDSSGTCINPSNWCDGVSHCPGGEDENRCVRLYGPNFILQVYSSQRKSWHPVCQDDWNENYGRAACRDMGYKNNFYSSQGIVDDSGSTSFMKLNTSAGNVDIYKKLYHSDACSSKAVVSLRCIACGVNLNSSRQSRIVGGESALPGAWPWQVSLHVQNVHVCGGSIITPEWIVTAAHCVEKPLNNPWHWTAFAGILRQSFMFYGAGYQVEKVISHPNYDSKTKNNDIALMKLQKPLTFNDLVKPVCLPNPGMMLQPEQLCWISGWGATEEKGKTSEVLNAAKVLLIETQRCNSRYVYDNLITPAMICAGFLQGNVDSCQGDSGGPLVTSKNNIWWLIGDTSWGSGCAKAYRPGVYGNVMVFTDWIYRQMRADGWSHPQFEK

TMPRSS-11F = TMPRSS-11F (human, UniProt Q6ZWK6); test: ELISA, Strep-tagged protein on streptavidin plate
Chain of TMPRSS-11F (Q6ZWK6 54-438 limits assumed): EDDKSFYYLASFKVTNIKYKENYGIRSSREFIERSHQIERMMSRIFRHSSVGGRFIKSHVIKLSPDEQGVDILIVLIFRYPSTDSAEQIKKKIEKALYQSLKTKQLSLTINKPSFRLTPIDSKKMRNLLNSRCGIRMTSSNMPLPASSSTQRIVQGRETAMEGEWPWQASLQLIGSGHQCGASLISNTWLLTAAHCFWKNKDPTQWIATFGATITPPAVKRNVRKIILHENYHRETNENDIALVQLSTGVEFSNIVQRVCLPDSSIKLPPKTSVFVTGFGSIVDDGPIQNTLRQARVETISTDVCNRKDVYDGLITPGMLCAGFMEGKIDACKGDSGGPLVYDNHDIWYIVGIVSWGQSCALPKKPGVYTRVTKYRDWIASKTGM

TMPRSS-11D = target: T1, TMPRSS-11D; test: ELISA, Strep-tagged protein on streptavidin plate
TMPRSS-13 = target: T2, TMPRSS-13; test: ELISA, Strep-tagged protein on streptavidin plate
TMPRSS-11E = target: T3, TMPRSS-11E; test: ELISA, Strep-tagged protein on streptavidin plate
[6] = target: T5, Human TMPRSS2 recombinant protein, …; test: SPR (BIAcore); rounded repeat of Table 1
[7] = target: T4, Human TMPRSS2 expressed on cells; test: cell-based or functional assay
[8] = target: T4, Human TMPRSS2 expressed on cells; test: flow cytometry, COS7 transfectant
F321A = target: T6, F321A (human, UniProt O15393); test: flow cytometry, COS7 transfectant
T6 construct: expressed on COS7 cells with GFP via IRES; also called TMPRSS2 alanine substitution F321A; RQSFMA
T6 sequence (O15393 whole entry F321A): as the sequence (O15393 whole entry) above, with F321A counted along it

[9] = target: T4, Human TMPRSS2 expressed on cells; test: cell-based or functional assay; remark: listed apart in the source

Molecule | infection inhibiting effect on WT-type virus [1] | Q2 (percent of cells GFP+ and stained) [2] | Q2 (percent of cells GFP+ and stained) [3] | Q2 (percent of cells GFP+ and stained) [4] | Kd [5] | koff [5] | kon [5] | binding result (TMPRSS-11F) | binding result (TMPRSS-11D) | binding result (TMPRSS-13) | binding result (TMPRSS-11E) | Kd [6] | Activity: Calu-3 Inhibiton [7] | Q2 (percent of cells GFP+ and stained) [8] | Q2 (percent of cells GFP+ and stained) (F321A) | IC90, First run; live SARS-CoV-2 infection of Calu-3 cells [9] | IC90, Second run; live SARS-CoV-2 infection of Calu-3 cells [9]
N=C(N)c1ccc2cc(OC(=O)c3ccc(N=C(N)N)cc3)ccc2c1 [Nafamostat, nafamostat] | exhibited infection inhibiting effects |  |  |  |  |  |  |  |  |  |  |  |  |  |  |  | 
1864_10 antibody (antibody, V domains shown) VH: QVQLQQSGPALVKPGASLKISCEASGYTFTYYSINWVKQRPGQGLEWIGWIFPGSGSTYYNEKFKGKATLTIDKSSSTAYMLLSSLTSEDSAVYFCARSDYGSAYGYFDVWGTGTTVTVSS VL: DIVLTQSPASLAVSLGQRATISCRASKSVSTSGYSYMHWYQQKPGQPPKLLIYLASNLESGVPARFSGSGSGTDFTLNIHPVEEEDAATYYCQHSRDLPLTFGAGTKLELK |  | 100 | 98.1 | 2.27 | 5.14 nM | 0.00289 s⁻¹ | 563000 M⁻¹ s⁻¹ | no binding (tested: 10 µg/mL) | no binding (tested: 10 µg/mL) | no binding (tested: 10 µg/mL) | no binding (tested: 10 µg/mL) | 5.1 nM | 67.6 | 10.5 | 7.85 | 0.11 µg/mL | 0.16 µg/mL
